Results: patent US20240425607A1, “IL-18BP ANTAGONIST ANTIBODIES AND THEIR USE IN MONOTHERAPY AND COMBINATION THERAPY IN THE TREATMENT OF CANCER” (Compugen Ltd., priority 2023, published 2024)
Residue numbers refer to the chain shown, from its start.

B1: ADI-71719: anti-IL18-BP antibody, sequences in FIG. 2B; 66670 lineage (antibody, V domains shown)
VH: QVQLVQSGAEVKKPGSSVKVSCKASGGTFNSYVISWVRQAPGQGLEWMGGIIPGAGTANYAQKFQGRVTITADESTSTAYMELSSLRSEDTAVYYCARGRHSHETWGQGTLVTVSS
VL: DIQMTQSPSSVSASVGDRVTITCRASQGISSWLAWYQQKPGKAPKLLIYAASSLQSGVPSRFSGSGSGTDFTLTISSLQPEDFATYYCQQVYSLPWTFGGGTKVEIK
B2: ADI-71755: anti-IL18-BP antibody, sequences in FIG. 2T (antibody, V domains shown)
VH: QLQLQESGPGLVKPSETLSLTCTVSGGSISSPDYPWGWIRQPPGKGLEWIGSIFYSGNTYYNPSLKSRVTISVDTSKNQFSLKLSSVTAADTAVYYCARGPFRQVFDYWGQGTLVTVSS
VL: B1 VL with V91G, Y92W, L94F, W96Y
B3: ADI-71720: anti-IL18-BP antibody, sequences in FIG. 2C; 66670 lineage (antibody, V domains shown)
VH: B1 VH with N30S, S31E
VL: B1 VL with S76G
B4: ADI-71744: anti-IL18-BP antibody, sequences in FIG. 2R (antibody, V domains shown)
VH: B2 VH with P32S, D33E, P35G, F54V, Y55N, N58S, F102Y
VL: B1 VL with V91G, Y92W, L94F, W96Y
B5: ADI-71736: anti-IL18-BP antibody, sequences in FIG. 2L; 66716 lineage (antibody, V domains shown)
VH: B2 VH with P32S, D33E, P35G, F54V, Y55N, N58S, F102H
VL: B1 VL with L46H, V91G, Y92F, L94F, W96Y
B6: ADI-71742: anti-IL18-BP antibody, sequences in FIG. 2Q (antibody, V domains shown)
VH: B2 VH with G8S, F102H
VL: B1 VL with V91G, Y92W, L94F, W96Y
B7: ADI-71741: anti-IL18-BP antibody, sequences in FIG. 2P (antibody, V domains shown)
VH: B2 VH with P32S, F54Y, N58S, F102Y
VL: B1 VL with V91G, Y92N, L94F, W96Y
B8: ADI-71753: anti-IL18-BP antibody, sequences in FIG. 2S (antibody, V domains shown)
VH: B2 VH with S30F, P32S, P35Y, G37S, S52V, F54A, N58S, V87A
VL: B1 VL with V91G, Y92S, L94F, W96Y
B9: ADI-71728: anti-IL18-BP antibody, sequences in FIG. 2O; 66670 lineage (antibody, V domains shown)
VH: B1 VH with N30S, S31E, V33P, G54Y, A55S, N59V, S102G
VL: B1 VL with L94I
B10: ADI-71663: anti-IL18-BP antibody, sequences in FIG. 2F; 66692 lineage (antibody, V domains shown)
VH: EVQLLESGGGLVQPGGSLRLSCAASGFTFGNTAMSWVRQAPGKGLEWVSAISANAGSTYYADSVKGRFTISRDNSKNTLYLQMNSLRAEDTAVYYCAKGPDRQVFDYWGQGTLVTVSS
VL: B1 VL with Q90H, V91A, Y92L, S93F, L94F, W96Y
B11: ADI-71710: anti-IL18-BP antibody, sequences in FIG. 2I; 66650 lineage (antibody, V domains shown)
VH: QVQLVQSGAEVKKPGASVKVSCKASGYTFGIYAMHWVRQAPGQRLEWMGWIHAGTGVTKYSQKFQGRVTITRDTSASTAYMELSSLRSEDTAVYYCARGLGEVGPTGTSWFDPWGQGTLVTVSS
VL: DIQMTQSPSTLSASVGDRVTITCRASQSISSWLAWYQQKPGKAPKLLIYEASSLESGVPSRFSGSGSGTEFTLTISSLQPDDFATYYCQQYRYSPFTFGGGTKVEIK
B12: ADI-71701: anti-IL18-BP antibody, sequences in FIG. 2E; 66650 lineage (antibody, V domains shown)
VH: B11 VH with G30N, I31S, V57N
VL: B11 VL with S9P, Y93V, S94F
B13: ADI-71707: anti-IL18-BP antibody, sequences in FIG. 2M; 66650 lineage (antibody, V domains shown)
VH: B11 VH with G30R, I31H, V57N, K59L
VL: B11 VL with Y93L, S94G

How the values were obtained:
[1] = Fab Tm by dynamic scanning fluorimetry (DSF); format: physicochemical; conditions: optimized antibodies
Procedure: 10 μL of 20× Sypro Orange is added to 20 μL of 0.2-1 mg/mL mAb or Fab solution. A RT-PCR instrument (BioRad CFX96 RT PCR) is used to ramp the sample plate temperature from 40 to 95° C. at 0.5° C. increment, with 2 min equilibrate at each temperature. The negative of first derivative for the raw data is used to extract Tm.

SEC-HPLC % monomer = format: physicochemical; conditions: optimized antibodies
Procedure: A TSKgel SuperSW mAb HTP column (22855) was used for fast SEC analysis of mammalian produced mAbs at 0.4 mL/min with a cycle time of 6 min/run. 200 mM Sodium Phosphate and 250 mM Sodium Chloride was used as the mobile phase.

Molecule | Fab Tm (DSF, ° C.) [1] [°C] | SEC-HPLC, % monomer (SEC-HPLC % monomer) [%]
B1 | 72.5 | 94.5
B2 | 74.5 | 92.9
B3 | 72.5 | 98.6
B4 | 74.5 | 88.1
B5 | 73.5 | 79.2
B6 | 74.0 | 91.3
B7 | 73.5 | 99.4
B8 | 74.5 | 96.9
B9 | 73.0 | 95.0
B10 | 68.0 | 93.9
B11 | 71.5 | 97.9
B12 | 71.5 | 98.6
B13 | 71.0 | 98.8
